This note sets out measurements from a protein production outcome set (Wang et al. 2014).

This data set is described as follows: label from the status in PepcDB records.
In the case of “MLVFEIIIGLLLAGAALTALSRRIGTPYPALVALAGAALALVPGTPTLVLEPDLALTLFVAPVLLDAAYDASQRDLRASWRTVAGLAVGAVALTVVVVAVVARALVPGMPWAVAVALGAIVAPPDAAAATAVLGQLRPPHRLMVILEGESLFNDASALLVYRLAVGAALAGALSPVEVLPPLLASTAGSVALGYGLSRVIPPLIARIEDVPIAVVVQFCGTFAVWIVAERLHLSGILTVVVFAMASAQRAAGQMAARVRIPSYAVWGFAVFVLNVLAFILVGFQLKAILGRIDAPTLLRYAGVAGAVCLAAVVARIAWVSGTAAVSRLRCRPTEDGSKARPDTIGLSPRGAAVVGWCGMRGIVTLAAALALPTGARGAPPFPHRDLVVFTAFAVVLGTLVLQGMTLRPLMRALRLEGDRSVDREVRLARVETLRAGLSATDGAAGDPLSDVLRRRYELLLRGAEAELRGGAAPQAPPAGGDVDPRAGAAVARRAVEAERGRLLALRSDGTIGDAAFQRVEEELDLEELSLRRLARDGAREAS”, the protein production entry is on record as “failed”. For “MCNETWQSRAEEYIDDSRRLGYALTTTSAYLLSFARFVDQRGHSGALTSDIILDWAQSTDSKKPTTWTKRLINIRRFISHCSRVDGKSEVPRVDVFGRPKGRPTPHIYTELEISELLAAARELPGTLPSATYETLFGLLASTGLRLSEALHLRCSDVDLRSGRLIVRQGKLGKSRLVPLHATVCEVLSRYLGVRQQLPLTSESYFFVSQTGGLLPRRTVEGVFIRLRTKLGWAPRGNWRAPRIHDLRHTFICRRVTQWHKEGADIDNAMLYVSTYVGHVAVTYTYWYLTGIPELMTVVGQRFEAFAESARGAENAE”, the protein production entry is “failed”. To “MSNEHTRPPLPPFTRESAIEKVRLAEDGWNTREPEKIALAYTVDTQWRNRAEFANNREEARDFLTRKWKKELDYRLIKELWAFTDNRIAVRYAYEWHDDSGNWFRSYGNENWEFEADGLMHRRFACINDMPIKESERKFHWPLGRRPDDHPGLTELGLLEHHHHHH” belongs “failed”; to “MSDVIQLAYFAVAVVFILGLKAMSSPVSARKGIVWAGYAMVAATLITLLKPGMENYGLMITAIVLGGAVAWWSGKVVKMTDMPQMVAIYNGMGSGAAAAIAALEFARGSMHGGFAATLAVLGALIGSVAFSGSCIAFAKLQGIMTKAWRLPAQNVVNVALAGIALVLGGAIIFGSTPASEMVIAFFVVALALGAILTSPIGGADMPVVISLLNAFTGLAVGFEGYVLGNPALIVAGIVVGASGTLLTQLMAKAMNRPIKNIIFTPITGAAAGGGEAIGGSMKELSALDGASVMRYASKVIIVPGYGMAVAGAQHKVWEMAQLLEEGGVEVVFAIHPVAGRMPGHMNVLLAEAGVPYDKIFDLEEINADFPQADVALVIGANDVVNPVARTDKSSPIYGMPILNVDMAQNVIVVKRGQGAGYSGIENALFFKDNCRMLYGSAQQIIGEVITHVKALEV”, “failed”.

For “MASHISLKQLKVFTTITQHKTLTAASDSLFLSKAAVSMALSELEKQIGHHLFDRVNNRLILNQEGQKLLPLADELLNRAKDIESIFDGDQALSGQLRIGASDTIGNQVAPYLLSEFRQQTNHRSQSLFISNSAQICDMLTDYELDIALIEGKTLHPELQSTQFSEDEMCVICAPDYPAAHEGPVNLTELENSEWILREAGSGSREFFMRVVAPRLEHWHEAFQLNTTEALINSVSAGLGLGCLSRLSAEPAIRDGRVKLLDMPLDMKRRFWLLVHKEKYQSPLLKTFIEFCQDWERPTNLPLGNKSAK”, the protein production result was “failed”. Turning to “MKWPWWPVCVPLSKRLTLPLPSTANPVVQPSRLALACANRLFEAADNRERFLQALMTPPAYPATVLWCGEPAAALPFAALPPLPWQPPWVSRFVAGSPTGQHPLHAAGAYYCLDSSSVFAAVPLLTLPQEPSLVIDVCAAPGGKSLFAWRSLHPRYLICNETIGKRVGKLIGNLKRCRVHPVGVTSWDSEVLAAEFQGTADVVIVDAPCSGQSLLAKGQKAEGCFHPLTIRHNQRRQKRILAAATTLVRPGGWLLYSTCTFSQDENEDVAAWLMAKFPHLLPQPVPALAAYQSHLAAFPCYRLWPHQGEGAGAFTILWQHQGKGESNPLPDLGNRRAFGDRWRWQSSSQPA”, the protein production result was “failed”. With “AIATDCEWFDMTWGSSASSGYCSQSDSDEHELELFYTARTSLRKSRKCRDKDEQSEVDWRKQDLSVTEIQQKVKEYNAQVNSNLFMVLNRDGSYTGFIKVQFKLARPVSLPPPRSVSSSSISSSCLGWDGGCQERTSFYLPRDTVKHLHISSSTRAREVIQALLNKFTVVDNPAKYSLYERSQRDNQVYLRKLADDECPLFLRLCAGPNEKVLSLVLKENETGEVNWDAFSFPELQNFLRILQREEEDHVRQIIRRYTLARDKMKEAMKNFSTPG” the entry was “failed”. With “MPFLYRLASLLIALLVLPVQAAEMRVALLRTSGVETLDALTVDGGSWVRRVPLSHTAVLIEHHAATLLFDTGLGRDIDAQFRADMPWWAAPLFAYQKVVPARDQLDAAGIRVDRILLSHAHWDHASGLVDFPEVPVWAPYEEIAFSRIATPPAAFPSQFRHGVRWQPYSFDPRPFMGFDESLDLFGDGRLVLVPLPGHTPGSVGLFVTLDSGRRLFFSGDTSWRLEGVEGPRQKFFAGRALVDRDPARTLAQLAKIRLLLRSDPRLSVIPAHDARVQAALGYFPHWLE”, the protein production result is on record as “failed”.

Regarding “LDYQRLYGTRCFSCDQFIEGEVVSALGKTYHPDCFVCAVCRLPFPPGDRVTFNGKECMCQKCSLPVSV”, the protein production result is given as “not failed”.

For the sequence “MTDTTAEPSRPSGRLWAYLWQLHAETKAYLTLDAPAIASNIDSLSESEQQLAREVFPDGGQSTADSDGGSATDAGSRGGDDSSPFDVGGSYSLRQKIGLVLGPLLFAALLFSPTPDGLPAEGQAVAAVTAWVAVWWMSEAIPIPAASLLPIVLFPLAGALPVEPTATSYGHPLVFLFMGGFFLAMAMQRWGLHRRIALRTIKLVGTEPSRLILGFMLATAILSMWVSNSATVMMMVPIALAVIYQTADLIDDSDVDIDTGVGEFSFGIALMLCIAYGASVGGVATLIGTPPNILFAGQAEALFGQSVSFAEWMLYGVPIAALGLVTVYIYVTRIAMTPQFDSLPAGTETIDRELAELGSMSQQEKLVAVVFVGMAAAWIGASLIEPVLDITPPDDADTIVAIGGALVLFTFPTTGENGDQTFLLDWSSAVEIPWGVILLFGGGLAIAAGFSETGLAVWIGEQLQLLEGVQMAAILLAVVVMTIFLTEVTSNTATTAMLMPILGAVAIGISVHPFGLMIAGATAASFAFMLPVATPPNAIVFGSGYITLPQMARVGVGLNVIGIVLITLLALVWLPIAWGIELATLPAEFADAFDS”, the protein production result is recorded as “failed”. With “MWALLLRFYIALPLSVIVLLVLKTSFPTHKQALHSYFAGSFSLIGSQIFTYAATQYLSSGMIALMFGLAPIMAGLIGRFAFGQHLFKLQWLGMAVAVCGLAIICLNGSNQHVHPFGIVLMLVSVFVYSFSIFWVKKVNAKIQPMAQATGSILVSSILASCLIPFIWQYAPTHLPQAKSLFALIYTVLMASLVAMFCYFKLVQNIKPTTLSLTTVITPMLAMIIGAVLNHEQLSIMVFVGAFIILFGLFLYFYKDIQANRNFAQHIKSK” the entry was “failed”; with “GSPLLAPAFEPSLGPPPEGAPPTIEAWFSFRSPYSWLFMPRIRHLAQAYGATLELRPILPMVMRGLAVPRIKTIYITLDCKREAERVGLPFGRIVDPVGAGAERALAVLHHAMALGLGEQFAELGLKAAFADGIALAEDEGLYGVARRAGLTDAQTAAALADDSWRQRAETNRAALLEAGLWGAPTFRITGHQAHWGQDRLYMLEEDLRAAMQGAAAPR”, “failed”. With “MYIVNSYTLAIIFCFITMICWGSWGNTQKLASKNWRYELYYWDYTIGILLFALLLVFTLGSFGDSGRGFLEDIQQVEAAYIASALIGGAIFNASNILLSASVSIAGMAVAFPLGVGLALVLGVFINYFSSPKGDPFWLFTGVVLIVIAIICNGIAAGKNQKAGTNNSKKGIILAAIAGILMSFFYRFVAAAMDLNNFESPTTGMATPYTAFFIFAIGIFLSNFLFNTLVMKRPFVGLPVTYKEYFAGKASTHMVGILGGCIWGLGTALSYIAAGKAGAAISYALGQGAPMIAALWGVFIWKEFTGSSKATNRLLGVMFILFILGLTFIVISGGS” the entry was “failed”.

For the sequence “TKKDVHDLFLNHVNSNAVKTRKMMGEYIIYYDSVVIGGLYDNRLLVKATKSVRHQLQDNTLVSPYPGAKEMILIPDITEAINLTNLFELIKNDLKN”, the protein production result is “failed”.
